In paper PMC4034690:

Legend:
[1] = target: γ-TuSC^Spc98Δ1–156, P53378;P38863;P53540; experiment: GST pull-down, immunoblot anti-Tub4 (bound Tub4), Li-cor quantification; conditions: 300 nM Spc110 1-220; parent: est. 42; read off a plot; scale: %
[2] = target: γ-tubulin small complex (γ-TuSC), P53378;P38863;P53540; experiment: as above; conditions: 300 nM Spc110 1-220; read off a plot
[3] = target: γ-TuSC^Spc98Δ1–156, P53378;P38863;P53540; experiment: GST pull-down, immunoblot anti-His (bound Spc97/Spc98), Li-cor quantification; conditions: 300 nM Spc110 1-220; parent: est. 6; read off a plot; scale: %
[4] = target: γ-tubulin small complex (γ-TuSC), P53378;P38863;P53540; experiment: as above; conditions: 300 nM Spc110 1-220; read off a plot
[5] = target: γ-tubulin small complex (γ-TuSC) [S. cerevisiae]; experiment: GST pull-down, immunoblot anti-Tub4 (bound Tub4), Li-cor quantification; conditions: 300 nM Spc110 1-220; read off a plot
[6] = target: γ-tubulin small complex (γ-TuSC) [S. cerevisiae]; experiment: GST pull-down, immunoblot anti-His (bound Spc97, Spc98), Li-cor quantification; conditions: 300 nM Spc110 1-220; read off a plot
[7] = target: GST-Spc110^1–220-2D (S. cerevisiae) (UniProt P32380)
[8] = target: GST-Spc110^1–220-3D (S. cerevisiae) (UniProt P32380)
[9] = target: GST-Spc110^1–220-5D (S. cerevisiae) (UniProt P32380)
[10] = target: γ-tubulin small complex (γ-TuSC) (S. cerevisiae) (UniProt P53378); experiment: SEC; as a3 (TB150, Superose 6 10/300) but with the concentrations of γ-TuSC and Spc110^1–220 variants doubled (Figure 2—figure supplement 2A)
[11] = target: γ-tubulin small complex (γ-TuSC) (S. cerevisiae) (UniProt P53378); experiment: SEC; γ-TuSC mixed with GST-Spc110^1–220 variant in 1:4 molar ratio (2.3:9.3) in TB150 buffer, 1 hr at 4°C, Superdex 200 10/300 or Superose 6 10/300; shift of γ-TuSC to the void volume; fractions by SDS-PAGE and silver staining; void-volume fraction also by negative-stain electron microscopy
[12] = target: γ-TuSC^Spc98Δ1–156 [S. cerevisiae]; experiment: GST pull-down, immunoblot anti-Tub4 (bound Tub4), Li-cor quantification; conditions: 300 nM Spc110 1-220; read off a plot; scale: %
[13] = target: γ-TuSC^Spc98Δ1–156 [S. cerevisiae]; experiment: GST pull-down, immunoblot anti-His (bound Spc97/Spc98), Li-cor quantification; conditions: 300 nM Spc110 1-220; read off a plot; scale: %

**Q.** Which response [1] does the source give for “GST-Spc110^1–220-5D (from UniProt P32380) T18D; CM1-QA” here?
**A.** Its response is 32.

**Q.** What about the percent of parent [2] of the same substance?
**A.** Its percent of parent is 40%.

**Q.** What about the response [3] of the same substance?
**A.** The response was 9.

**Q.** What about the percent of parent [4] of the same substance?
**A.** The percent of parent was 16%.

**Q.** “GST-Spc110^1–220 (wild type, from E. coli, non-phosphorylated) mutant S36D; S91D [S. cerevisiae] / γ-tubulin small complex (γ-TuSC) [S. cerevisiae] chain 1 S36D, chain 1 S91D” was tested. Which response [5] did it give?
**A.** Its response is 3300 RU.

**Q.** What about the response [6] of the same substance?
**A.** The response was 3300 RU.

**Q.** With “γ-tubulin small complex (γ-TuSC), P53378 1-473; P38863 1-823; P53540 1-846” as the substance, how does the in vitro MT nucleation activity (MTs/field normalised to buffer only); 3 μM γ-TuSC pre-incubated with 15 μM GST-Spc110^1–220 variant; compared to the buffer control and γ-TuSC alone [7] read?
**A.** Its in vitro MT nucleation activity (MTs/field normalised to buffer only); 3 μM γ-TuSC pre-incubated with 15 μM GST-Spc110^1–220 variant; compared to the buffer control and γ-TuSC alone is 3 fold.

**Q.** And the in vitro MT nucleation activity (MTs/field normalised to buffer only); 3 μM γ-TuSC pre-incubated with 15 μM GST-Spc110^1–220 variant; compared to the buffer control and γ-TuSC alone [8]?
**A.** Its in vitro MT nucleation activity (MTs/field normalised to buffer only); 3 μM γ-TuSC pre-incubated with 15 μM GST-Spc110^1–220 variant; compared to the buffer control and γ-TuSC alone is 3 fold.

**Q.** And the in vitro MT nucleation activity (MTs/field normalised to buffer only); 3 μM γ-TuSC pre-incubated with 15 μM GST-Spc110^1–220 variant; compared to the buffer control and γ-TuSC alone [9]?
**A.** Its in vitro MT nucleation activity (MTs/field normalised to buffer only); 3 μM γ-TuSC pre-incubated with 15 μM GST-Spc110^1–220 variant; compared to the buffer control and γ-TuSC alone is 3 fold.

**Q.** And the stoichiometry N [10]?
**A.** Its stoichiometry N is 2.

**Q.** And the stoichiometry N [11]?
**A.** The stoichiometry N was > 14.

**Q.** What does the source list for “GST-Spc110^1–220 (wild type, from E. coli, non-phosphorylated) mutant S36D; S60D; T64D; T68D; S91D [S. cerevisiae] / γ-tubulin small complex (γ-TuSC) [S. cerevisiae] chain 1 S36D, chain 1 S60D, chain 1 T64D, chain 1 T68D, chain 1 S91D”?
**A.** response [5]: 11000 RU; response [6]: 8300 RU

**Q.** With “GST-Spc110^1–220-5D (from UniProt P32380) CM1-QA” as the substance, how does the response [1] read?
**A.** Its response is 34.

**Q.** And the percent of parent [2]?
**A.** The percent of parent was 49%.

**Q.** What about the response [3] of the same substance?
**A.** Its response is 3.

**Q.** And the percent of parent [4]?
**A.** The percent of parent was 45%.

**Q.** For “GST-Spc110^1–220 (wild type, from E. coli, non-phosphorylated) mutant S60D; T64D; T68D [S. cerevisiae] / γ-tubulin small complex (γ-TuSC) [S. cerevisiae] chain 1 S60D, chain 1 T64D, chain 1 T68D”, which response [5] is on record?
**A.** Its response is 10000 RU.

**Q.** What about the response [6] of the same substance?
**A.** Its response is 7400 RU.

**Q.** Which response [12] does the source give for “GST-Spc110^1–220 (wild type, from E. coli, non-phosphorylated) mutant S36D; S60D; T64D; T68D; S91D [S. cerevisiae] / γ-TuSC^Spc98Δ1–156 [S. cerevisiae] chain 1 S36D, chain 1 S60D, chain 1 T64D, chain 1 T68D, chain 1 S91D” here?
**A.** The response was 42.

**Q.** What about the response [13] of the same substance?
**A.** Its response is 6.
